# ± gives the uncertainty stated by the source.
# Experiment: abundance fitness (aPCA) (normalised: wild type 0, dead -1); higher = more abundant; growth selection in yeast, the domain comes from the species named
# Conditions: Homo sapiens
row,Substance,abundance fitness
1,"Homeobox expressed in ES cells 1 A114T, Q9UBX0",0.493 ± 0.057
2,"Homeobox expressed in ES cells 1 C131H, Q9UBX0",0.419 ± 0.15
3,"Homeobox expressed in ES cells 1 D136F, Q9UBX0",0.211 ± 0.24
4,"Homeobox expressed in ES cells 1 D140E, Q9UBX0",-0.047 ± 0.07
5,"Homeobox expressed in ES cells 1 D150A, Q9UBX0",0.089 ± 0.12
6,"Homeobox expressed in ES cells 1 G134D, Q9UBX0",-0.02 ± 0.17
7,"Homeobox expressed in ES cells 1 I120L, Q9UBX0",-0.192 ± 0.15
8,"Homeobox expressed in ES cells 1 I135V, Q9UBX0",-0.069 ± 0.073
9,"Homeobox expressed in ES cells 1 I152V, Q9UBX0",-0.315 ± 0.12
10,"Homeobox expressed in ES cells 1 I154V, Q9UBX0",-0.028 ± 0.12
11,"Homeobox expressed in ES cells 1 K164W, Q9UBX0",-0.547 ± 0.16
12,"Homeobox expressed in ES cells 1 N118Q, Q9UBX0",-0.35 ± 0.35
13,"Homeobox expressed in ES cells 1 N125A, Q9UBX0",-0.36 ± 0.12
14,"Homeobox expressed in ES cells 1 N130T, Q9UBX0",-0.144 ± 0.066
15,"Homeobox expressed in ES cells 1 P111N, Q9UBX0",0.704 ± 0.15
16,"Homeobox expressed in ES cells 1 Q117L, Q9UBX0",-0.548 ± 0.16
17,"Homeobox expressed in ES cells 1 Q143M, Q9UBX0",-0.011 ± 0.19
18,"Homeobox expressed in ES cells 1 R128A, Q9UBX0",-0.277 ± 0.16
19,"Homeobox expressed in ES cells 1 V122E, Q9UBX0",0.12 ± 0.15
20,"Homeobox expressed in ES cells 1 V129Q, Q9UBX0",0.143 ± 0.25

# — the Human Domainome abundance scans (Beltran et al. 2025)
